The assay concerns the target BamE (E. coli) (UniProt P0A937). Put plainly: SEC + native MS; purified BamABCDE; SDS-PAGE, gel filtration (Superdex200 10/300 GL, TBS with 0.05% DDM, 21 °C) and non-covalent nanoESI-MS named together for the molar ratio. (SEC sorts molecules by how far they enter the pores of the column.)

The values below come from publication PMC5056442.

Usually stoichiometry N stands for the number of molecules, sites or subunits per partner or assembly.

Sequence of UniProt P0A937 (P0A937 20-113): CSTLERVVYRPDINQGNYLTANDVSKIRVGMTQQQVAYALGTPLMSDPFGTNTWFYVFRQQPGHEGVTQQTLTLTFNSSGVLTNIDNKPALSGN

Take “BamB (from UniProt P77774 20-392) (natural protein)”: the stoichiometry N came to 1 molar ratio.
